Experimental data taken from patent publication EP1146896B1.
Each block holds one substance with its values, some of them ahead of it.

Experiments:
[1] = target: B28-N^ε-myristoyl-Lys^B28Pro^B29 human insulin analog (human); test: static light scattering, self-association, pH 7.5
[2] = target: B28-N^ε-myristoyl-Lys^B28Pro^B29 human insulin analog (human); test: sedimentation velocity, self-association, 10 mM Tris pH 7.96 (monomer 6,018 g/mole, theoretical hexamer 36,108 g/mole)
[3] = target: B28-N^ε-myristoyl-Lys^B28Pro^B29 human insulin analog (human); test: static light scattering, self-association, pH 8.3
[4] = target: B28-N^ε-myristoyl-Lys^B28Pro^B29 human insulin analog (human); test: sedimentation velocity, self-association, 7 mM phosphate pH 7.95 (monomer 6,018 g/mole, theoretical hexamer 36,108 g/mole)
[5] = target: B28-N^ε-myristoyl-Lys^B28Pro^B29 human insulin analog (human); test: static light scattering, self-association, pH 7.8
[6] = target: B28-N^ε-myristoyl-Lys^B28Pro^B29 human insulin analog (human); test: static light scattering, self-association, pH 8.5
[7] = target: B28-N^ε-myristoyl-Lys^B28Pro^B29 human insulin analog (human); test: sedimentation velocity analysed with DCDT Plus, self-association, pH 8.0
[8] = target: B28-N^ε-myristoyl-Lys^B28Pro^B29 human insulin analog (human); test: static light scattering, self-association, pH 8.0
[9] = target: B28-N^ε-octanoyl-Lys^B28Pro^B29 human insulin analog (human); test: sedimentation velocity (DCDT Plus), self-association, pH 8.0, refined fit
[10] = target: B28-N^ε-octanoyl-Lys^B28Pro^B29 human insulin analog (human); test: sedimentation velocity (DCDT Plus), self-association, pH 8.0, first fit
[11] = target: B29-N^ε-myristoyl-des(B30) human insulin (human) (UniProt P01308); test: sedimentation velocity (DCDT Plus, single Gaussian fit), self-association, pH 7.97
[12] = target: B29-N^ε-myristoyl-des(B30) human insulin (human) (UniProt P01308); test: sedimentation velocity (DCDT Plus, single Gaussian fit), self-association, pH 7.5; heterogeneous
[13] = target: B29-N^ε-myristoyl-des(B30) human insulin (human) (UniProt P01308); test: sedimentation velocity (DCDT Plus, single Gaussian fit), self-association, pH 8.4
[14] = target: B29-N^ε-myristoyl-des(B30) human insulin (human) (UniProt P01308); test: sedimentation velocity, area of the profile compared with an ideal hypothetical hexamer curve, self-association, pH 8.0 (7.97)
[15] = target: B29-N^ε-octanoyl-Asp^B28 human insulin analog (human); test: sedimentation velocity (DCDT Plus, two Gaussian fit), self-association, pH 7.5; the model is the 27,700 g/mole species, not hexamer
[16] = target: B29-N^ε-octanoyl-Asp^B28 human insulin analog (human); test: sedimentation velocity (DCDT Plus, two Gaussian fit), self-association, pH 8.0
[17] = target: B29-N^ε-octanoyl-Asp^B28 human insulin analog (human); test: sedimentation velocity (DCDT Plus, two Gaussian fit), self-association, pH 7.5; hexamer said not to be dominant

Mw (weight-average molecular weight of association) [1]: 127000 g/mol
Calculated MW of association [2]: 35000 g/mol
Mw (weight-average molecular weight of association) [3]: 40400 g/mol
Calculated MW of association [4]: 34300 g/mol
Mw (weight-average molecular weight of association) [5]: 60700 g/mol
Mw (weight-average molecular weight of association) [6]: 49100 g/mol
molecular weight of association [7]: 34400 grams/mole
percent of data described by the hexamer model [7]: > 96%
Mw (weight-average molecular weight of association) [8]: 40400 g/mol
Substance: B28-N^ε-myristoyl-Lys^B28Pro^B29 human insulin analog (ligand)

molecular weight of association [9]: 40800 g/mol
percent of data described by the hexamer model [9]: > 94%
molecular weight of association [10]: 35300 g/mol
Substance: B28-N^ε-octanoyl-Lys^B28Pro^B29 human insulin analog (ligand)

MW (g/mole) of association [11]: 30700 g/mol
MW (g/mole) of association [12]: 23000 g/mol
MW (g/mole) of association [13]: 39000 g/mol
percent in the hexamer association state [14]: > 92 percent
Substance: B29-N^ε-myristoyl-des(B30) human insulin (from UniProt P01308 25-110; P01308 25-110) (ligand)

percent of data described by the model [15]: > 92%
molecular weight of association [16]: 33200 g/mol
percent of data described by the hexamer model [16]: 85%
molecular weight of association [17]: 27700 g/mol
Substance: B29-N^ε-octanoyl-Asp^B28 human insulin analog (ligand)
